These results are taken from paper PMC5404824, “Engineering Nucleotide Specificity of Succinyl-CoA Synthetase in Blastocystis: The Emerging Role of Gatekeeper Residues” (Biochemistry, 2016).

The series relates to Nc1nc2c(ncn2[C@@H]2O[C@H](COP(=O)(O)OP(=O)(O)OP(=O)(O)O)[C@@H](O)[C@H]2O)c(=O)[nH]1. Put plainly: purified protein. It is filed as biochemical, Blastocystis hominis. Particulars: 129 μM CoA, 10 mM succinate, 50 mM KCl, 10 mM MgCl2, 50 mM Tris-HCl pH 7.4, 30 nM enzyme.

Turning to “Blastocystis SCS (succinyl-CoA synthetase, SCSα + SCSβ) (Blastocystis sp. ATCC 50177/Nand II; K128D/K60E/L241F/V127L)”, the Km worked out at 82 ± 12 µM, the catalytic constant (kcat) was found to be 0.0078 ± 0.0004 s⁻¹ and the kcat/Km was 96 M⁻¹ s⁻¹.
For the substance “Blastocystis SCS (succinyl-CoA synthetase, SCSα + SCSβ) (Blastocystis sp. ATCC 50177/Nand II; K128D/K60E)”, the Km stood at 143 ± 17 µM, the kcat is 0.0195 ± 0.001 s⁻¹ and the kcat/Km amounted to 136 M⁻¹ s⁻¹.
